Experimental data from patent US20090093002A1.

Molecular target: biotinylated complete Aβ1-42 peptide (Bachem) (UniProt P05067)
Experiment: ELISA on biotinylated complete Aβ1-42 peptide

biotinylated complete Aβ1-42 peptide (Bachem), sequence (P05067 672-713 limits assumed): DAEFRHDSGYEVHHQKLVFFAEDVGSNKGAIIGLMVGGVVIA

**Q.** Which O.D does the source give for Control IgG (antibody) here?
**A.** 0.196 O.D
